These results are taken from patent publication US20220251236A1 (Boehringer Ingelheim, published 2022).

The target of test [1] is T1, human DLL3 (endogenous, on SCLC cell lines NCI-H82 and SHP77 and in SCLC tissue) (human, UniProt Q9NYJ7 27-618).
T1 construct: whole, on cells; also called SCLC cell lines expressing DLL3
T1 sequence (looked up): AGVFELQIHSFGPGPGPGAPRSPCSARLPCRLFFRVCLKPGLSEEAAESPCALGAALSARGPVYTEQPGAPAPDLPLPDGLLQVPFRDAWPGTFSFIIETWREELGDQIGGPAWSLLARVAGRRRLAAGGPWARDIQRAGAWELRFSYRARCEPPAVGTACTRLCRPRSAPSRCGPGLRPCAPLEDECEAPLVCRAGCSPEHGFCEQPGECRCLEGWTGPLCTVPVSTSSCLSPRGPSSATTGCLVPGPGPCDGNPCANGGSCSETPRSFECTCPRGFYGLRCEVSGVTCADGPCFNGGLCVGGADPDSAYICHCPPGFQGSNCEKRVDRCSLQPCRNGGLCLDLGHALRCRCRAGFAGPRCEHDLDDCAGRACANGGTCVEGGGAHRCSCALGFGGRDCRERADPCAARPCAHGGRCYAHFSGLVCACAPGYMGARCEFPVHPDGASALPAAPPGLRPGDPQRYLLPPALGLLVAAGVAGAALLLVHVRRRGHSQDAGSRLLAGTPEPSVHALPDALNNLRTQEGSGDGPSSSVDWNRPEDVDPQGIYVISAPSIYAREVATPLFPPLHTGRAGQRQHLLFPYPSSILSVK
The test can be described thus: flow cytometry titration on NCI-H82 cells, PE anti-human secondary, x-fold over background. The source says:
(§1) Cells (T cells or human SCLC cells) were stained with increasing concentrations of two-step purified DLL3/CD3 binding proteins with increasing concentrations in FACS buffer (PBS/0.5% BSA/0.05% sodium azide). Bound molecules were detected with PE-conjugated anti-human secondary antibody (Sigma-Aldrich, #P8047).
For orientation: A flow cytometer gives signals particle by particle.

Test [2] has as its target T2, EGF6+MEMBRANE PROXIMAL PEPTIDE.
T2 construct: also called Hu DLL3 EGF6+membrane proximal peptide on HEK293 cells
T2 membrane-anchored DLL3 subdomain construct: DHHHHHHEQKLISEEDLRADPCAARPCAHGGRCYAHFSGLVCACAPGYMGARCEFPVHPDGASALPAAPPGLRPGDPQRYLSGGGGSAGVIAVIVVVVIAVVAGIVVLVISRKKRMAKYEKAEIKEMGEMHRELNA
The test can be described thus: flow cytometry on HEK293 cells expressing the DLL3 subdomain construct, PE anti-human secondary, control: secondary antibody only. How it is done:
(§2) DLL3/CD3 binding proteins were produced by transient transfection of CHO-E cells with the pTT5 vectors carrying the chain-encoding genes, as described in Example 2. […] Bound molecules were detected with PE-conjugated anti-human secondary antibody (Sigma-Aldrich, #P8047). As negative control, cells were incubated with secondary antibody only.
(§3) The samples were measured by flow-cytometry. […] The sequences of the epitope domains are listed in Example 5, Table 3.

Test [3] addresses T3, EGF4+5.
T3 construct: also called Hu DLL3 EGF4+5 on HEK293 cells
T3 membrane-anchored DLL3 subdomain construct: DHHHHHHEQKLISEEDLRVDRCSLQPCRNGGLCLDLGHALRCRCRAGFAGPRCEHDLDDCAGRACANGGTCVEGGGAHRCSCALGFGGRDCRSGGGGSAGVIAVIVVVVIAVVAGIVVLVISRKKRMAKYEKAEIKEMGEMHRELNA
The test is described as above. As to the method: as §2, §3

Test [4] has as its target T4, EGF2+3.
T4 construct: also called Hu DLL3 EGF2+3 on HEK293 cells
T4 membrane-anchored DLL3 subdomain construct: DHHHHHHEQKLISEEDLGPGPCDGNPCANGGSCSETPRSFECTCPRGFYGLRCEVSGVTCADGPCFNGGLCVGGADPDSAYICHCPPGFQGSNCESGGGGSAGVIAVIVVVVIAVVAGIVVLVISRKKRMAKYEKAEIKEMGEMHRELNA
The description is as above. How it is done: as §2, §3

Test [5] concerns the target T5, EGF3+4.
T5 construct: also called Hu DLL3 EGF3+4 on HEK293 cells
T5 membrane-anchored DLL3 subdomain construct: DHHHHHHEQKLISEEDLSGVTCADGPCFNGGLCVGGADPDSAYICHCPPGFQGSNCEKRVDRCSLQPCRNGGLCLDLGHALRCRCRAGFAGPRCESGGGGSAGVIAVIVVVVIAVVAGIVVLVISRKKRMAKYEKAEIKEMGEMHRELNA
Described as above. As to the method:
as §2, §3

Test [6] deals with T6, EGF5+6.
T6 construct: also called Hu DLL3 EGF5+6 on HEK293 cells
T6 membrane-anchored DLL3 subdomain construct: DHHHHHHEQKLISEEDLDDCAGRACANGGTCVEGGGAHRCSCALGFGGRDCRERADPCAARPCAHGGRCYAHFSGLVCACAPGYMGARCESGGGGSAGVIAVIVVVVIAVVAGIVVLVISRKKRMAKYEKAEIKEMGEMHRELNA
The test is described as above. How it is done: as §2, §3

In test [7] the target is T7, EGF1+2.
T7 construct: also called Hu DLL3 EGF1+2 on HEK293 cells
T7 membrane-anchored DLL3 subdomain construct: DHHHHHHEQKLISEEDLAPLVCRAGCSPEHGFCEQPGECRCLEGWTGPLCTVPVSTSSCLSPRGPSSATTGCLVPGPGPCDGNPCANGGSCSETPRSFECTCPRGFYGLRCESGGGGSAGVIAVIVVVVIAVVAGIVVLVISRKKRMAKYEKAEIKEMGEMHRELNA
The description is as above. As to the method: as §2, §3

For test [8], the target named is T1, human DLL3 (endogenous, on SCLC cell …). Description: flow cytometry titration on SHP77 cells, PE anti-human secondary, x-fold over background.
Text: as §1

Test [9] addresses T8, Human CD3 E+G HuFc-6xHis (human).
T8 construct: also called hu CD3εγ-Fc
Description: SPR (ProteOn XPR36), HuCD3E_HuCD3G-Fc amine-coupled, bispecific as analyte, Example 4B. How it is done: (§4) The binding affinity of purified DLL3/CD3 bispecific constructs for recombinant human DLL3-ECD and Fc-fusion protein of human CD3 εγ subunits was determined by Surface Plasmon Resonance (SPR), using a ProteOn XPR36 instrument (Bio-Rad).
For binding kinetic determination to CD3, HuCD3E_HuCD3G-Fc (dissolved in pH 4.5 acetate) was immobilized directly onto the sensor surface through amine coupling for 360 sec at a flowrate of 30 μl/min vertically. The baseline was stabilized by injecting PBS-T-EDTA for 60 sec at a flowrate of 30 μl/min horizontally. The analytes (all anti-DLL3/CD3 molecules) were injected horizontally over the captured antibody for 600 sec at a flowrate of 30 μl/min and a dissociation for 1800 sec.

For test [10], the target named is T9, Human DLL3-His (human, UniProt Q9NYJ7 27-492).
T9 construct: also called huDLL3-His; hu DLL3
T9 sequence: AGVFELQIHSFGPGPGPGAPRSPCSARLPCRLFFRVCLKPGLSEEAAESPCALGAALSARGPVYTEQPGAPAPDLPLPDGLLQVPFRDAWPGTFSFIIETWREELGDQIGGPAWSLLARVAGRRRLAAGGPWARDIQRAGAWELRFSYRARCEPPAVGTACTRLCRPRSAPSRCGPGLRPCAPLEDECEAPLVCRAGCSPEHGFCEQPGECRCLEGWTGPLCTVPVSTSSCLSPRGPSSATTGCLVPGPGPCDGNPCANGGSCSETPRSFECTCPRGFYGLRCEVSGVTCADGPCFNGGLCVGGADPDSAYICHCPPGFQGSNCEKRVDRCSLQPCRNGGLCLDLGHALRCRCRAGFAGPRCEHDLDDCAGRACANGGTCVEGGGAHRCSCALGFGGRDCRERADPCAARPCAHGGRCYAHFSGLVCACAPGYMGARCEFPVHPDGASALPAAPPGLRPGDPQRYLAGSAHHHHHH
Description: SPR (ProteOn XPR36), bispecific captured on protein A/G, hu DLL3 as analyte, Example 4B. How it is done: as §4
For binding kinetic determination to DLL3, anti-DLL3/CD3 molecules were captured individually on the protein A/G surface vertically for 200 sec at a flowrate of 30 μl/min. The baseline was stabilized by injecting PBS-T-EDTA for 60 sec at a flowrate of 30 μl/min horizontally. The analyte (hu DLL3) was injected horizontally over the captured antibody for 300 sec at a flowrate of 30 μl/min and a dissociation for 1800 sec.

Test [11] concerns the target T10, trypsin inhibitor from glycine max soybean (Glycine max (soybean)).
T10 construct: also called Tryp
Description: SPR (Biacore T200), trypsin inhibitor on CM5 chip, sample at 1 µM. The text has this: To prepare the surface for the non-specific binding experiment, chicken egg white lysozyme and trypsin inhibitor from glycine max soybean were coupled manually to a series S CM5 chip with the surface density of 3000-5000 RU using the amine coupling kit according to the manufacture instructions.
A general note: Surface plasmon resonance follows binding to a sensor surface in real time, without labels.

T10 sequence (P01070 25-205): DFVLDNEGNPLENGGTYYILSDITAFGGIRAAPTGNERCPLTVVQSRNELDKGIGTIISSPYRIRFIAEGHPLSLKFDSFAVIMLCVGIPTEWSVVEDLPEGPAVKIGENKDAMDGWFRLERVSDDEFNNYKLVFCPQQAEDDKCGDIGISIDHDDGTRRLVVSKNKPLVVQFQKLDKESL
T8 sequence (chain, as listed by the source limits assumed): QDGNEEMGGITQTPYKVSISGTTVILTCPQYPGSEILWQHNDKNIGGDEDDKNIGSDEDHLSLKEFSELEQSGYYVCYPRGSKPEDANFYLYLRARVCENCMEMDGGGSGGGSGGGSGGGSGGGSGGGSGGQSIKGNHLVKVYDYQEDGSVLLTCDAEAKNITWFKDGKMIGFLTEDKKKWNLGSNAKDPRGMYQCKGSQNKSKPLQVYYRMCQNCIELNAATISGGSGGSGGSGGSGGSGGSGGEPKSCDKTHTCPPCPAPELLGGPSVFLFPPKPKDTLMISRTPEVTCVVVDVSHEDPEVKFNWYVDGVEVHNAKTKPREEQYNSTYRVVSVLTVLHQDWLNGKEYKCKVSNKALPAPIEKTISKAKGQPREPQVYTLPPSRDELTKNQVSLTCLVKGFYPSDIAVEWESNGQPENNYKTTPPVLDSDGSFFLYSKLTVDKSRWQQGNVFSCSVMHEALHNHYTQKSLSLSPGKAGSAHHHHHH

B1: DLL3#15/CD3#1 (bispecific antibody, human IgG1, kappa, lambda, L234A L235A)
chain 1: not shown
chain 2: EAVVTQEPSLTVSPGGTVTLTCRSSTGAVTTSNYANWVQEKPGQLPRGLIGGTNKRAPWVPARFSGSLLGGKAALTLSGAQPEDEAEYFCALWYSNLWVFGGGTKLTVLGQPKAAPSVTLFPPSSEELQANKATLVCLISDFYPGAVKVAWKADGSPVNTGVETTTPSKQSNNKYAASSYLSLTPEQWKSHRSYSCQVTHEGSTVEKTVAPAECSGGGGSEGKSSGSGSESKSTEGKSSGSGSESKSTGGGGSEVQLVESGGGLVQPGGSLKLSCAASGFTFNTYAMNWVRQAPGKGLEWVARIRSKYNNYATYYADSVKDRFTISRDDSKNTAYLQMNNLKTEDTAVYYCVRHGNFGNSYVSWFAYWGQGTLVTVSAASTKGPSVFPLAPSSKSTSGGTAALGCLVKDYFPEPVTVSWNSGALTSGVHTFPAVLQSSGLYSLSSVVTVPSSSLGTQTYICNVNHKPSNTKVDKRVEPKSCDKTHTCPPCPAPEAAGGPSVFLFPPKPKDTLMISRTPEVTCVVVDVSHEDPEVKFNWYVDGVEVHNAKTKPREEQYNSTYRVVSVLTVLHQDWLNGKEYKCKVSNKALPAPIEKTISKAKGQPREPQVYTLPPSREEMTKNQVSLSCAVKGFYPSDIAVEWESNGQPENNYKTTPPVLDSDGSFFLVSKLTVDKSRWQQGNVFSCSVMHEALHNRFTQKSLSLSPG
notes: Heterodimer of one DLL3 chain and one CD3 chain (scFab-Fc, knob-in-hole); SPR not given
Take B1: the EC50 (read off the curve) – broadly, the concentration that produces a half-maximal response – was around 1 nM in test [1] and around 2 nM in [8]. Further, the binding result in test [2], in test [3], in test [4], in [5], in test [6] and in [7] was “no binding (tested: 1.6 nM)” in each case.

B2: DLL3#16/CD3#1 (bispecific antibody, human IgG1, kappa, lambda, L234A L235A)
chain 1: DIQMTQSPSTLSASVGDRVTITCRASQSVSDWLAWYQQKPGKAPKFLIYRASSLESGVPSRFSGSGSGTEFTLTISSLQPADFATYYCQLYNSYSPTFGQGTKVEIKRTVAAPSVFIFPPSDEQLKSGTASVVCLLNNFYPREAKVQWKVDNALQSGNSQESVTEQDSKDSTYSLSSTLTLSKADYEKHKVYACEVTHQGLSSPVTKSFNRGECGGGGSEGKSSGSGSESKSTEGKSSGSGSESKSTGGGGSEVHLVESGGGLVQPGGSLRLSCAASGFTFSSYWMTWVRQAPGKGLEWVANIKEDGSEKYYVDSVKGRFTISRDNAKNSLYLQMNSLRAEDTALYYCARDWGYFDYWGQGTLVTVSSASTKGPSVFPLAPSSKSTSGGTAALGCLVKDYFPEPVTVSWNSGALTSGVHTFPAVLQSSGLYSLSSVVTVPSSSLGTQTYICNVNHKPSNTKVDKRVEPKSCDKTHTCPPCPAPEAAGGPSVFLFPPKPKDTLMISRTPEVTCVVVDVSHEDPEVKFNWYVDGVEVHNAKTKPREEQYNSTYRVVSVLTVLHQDWLNGKEYKCKVSNKALPAPIEKTISKAKGQPREPQVYTLPPSREEMTKNQVSLWCLVKGFYPSDIAVEWESNGQPENNYKTTPPVLDSDGSFFLYSKLTVDKSRWQQGNVFSCSVMHEALHNHYTQKSLSLSPG
chain 2: B1 chain 2
notes: Heterodimer of one DLL3 chain and one CD3 chain (scFab-Fc, knob-in-hole)
Consider B2, for which the dissociation constant (Kd) (usually the free concentration of one partner at which half of the binding sites on the other are occupied at equilibrium, for simple one-to-one binding) in test [9] is 2 nM; in test [10], 0.228 nM. In addition, the binding result in [2], in [3], in test [4], in test [5], in test [6] and in test [7] was “no binding (tested: 1.6 nM)” each time. The “Non-specific binding (RU)” value in test [11] stood at 0 RU.

B3: DLL3#14/CD3#1 (bispecific antibody, human IgG1, kappa, lambda, L234A L235A)
chain 1: not shown
chain 2: B1 chain 2
notes: as for B2
With B3, the Kd in [9] is 3 nM; in test [10] it was 0.06 nM. Further, the binding result in test [2], in test [3], in [4], in test [5], in [6] and in test [7] was “no binding (tested: 1.6 nM)” in each case. Also, in [11], the “Non-specific binding (RU)” value is 6 RU.
